According to patent CN115141273A:

Target: 猫杯状病毒 (Feline Calicivirus, FCV), BJH13株 (Feline calicivirus strain BJH13)
Assay: cell-based or functional assay

B1: 2G3单克隆抗体 (monoclonal antibody against feline calicivirus, from hybridoma 2G3, CGMCC NO.45148) (antibody, V domains shown)
VH: QVQLQQSGPELVKPGTSVKLSCQASGYTFTNYYMWWVKQRPGQGLEWIGQINPNNDNTDFNEKFRNKATLTVDKSSSTAYMQLSRLTSEDSAVYYCTRRAYWGQGTLVTVSA
VL: GVLLTQAPLSLPVSLGDQASISCRSSQYVVYINGNSYLEWYLQKPGQSPKLLIYKVSNRFSGVPDRFSGSGSGTDFTLKISRVEAEDLGIYYCFQGSHVPYTFGGGTKLEIR
Q: Which results are given for B1?
A: 中和抗体效价 (neutralising antibody titre of the injection): 1280 titre (1:x); 中和效价 (neutralisation titre of hybridoma supernatant): 220 to 320 titre (1:x); 小鼠腹水中和效价 (neutralisation titre of ascites): 25100 titre (1:x)
